Data on one protein can be found in patent US20220162265A1 (University of Washington, published 2022).

This series concerns the molecule itself. Put plainly: self-assembly into 2D arrays, negative-stain EM and AFM. The protocol: Samples were applied to glow-discharged EM grids and stained with either uranyl acetate (UA), uranyl formate (UF) or NanoW™ (Nanoprobes, Inc, Yaphank, N.Y., USA) for screening or analysis. Data was collected using a Tecnai T12 equipped with a Gatan Orius CCD. CTF estimation was performed using GCTF (10), and all other image processing steps were completed via Relion™ 2.1 (11). For the analysis in FIG. 2G, 421 2D array segments were picked manually from 42 micrographs, and the resulting 2D class average used as a template for Relion™ autopicking, which yielded 5,823 2D array segments. After subsequent 2D classification and alignment, the dominant 2D class consisted of 1,893 array segments (each approximately 20 nm diameter).

B1: 2D-HP (designed binder)
chain: MGSRTMYIRALEQSLREQEELAKRLKELLRELERLQREGSSDRDVKVLLWEIEALVEEIEKLARLQKELVEKLKRQGSGNMYIRALEQSLREQEELAKRLKELLRELERLQREGSSDRDVKVLLWEIEALVEEIEKLARLQKELVEKLKRQD
notes: Expressed from pET28b(+) between NdeI and XhoI; also called design 2D-HP; designed 2D assembly 2D-HP
In the case of B1, the binding result was “binds”.
